Changes are numbered by the printed parent chain.

In this experiment the target is (GST-GATE16)2, P60520. Briefly: BLI. Particulars: chain shown with the change; 5 µM (GST-GATE16)2; NCOA4 construct immobilized to the probe; parent: est. 0.105; read off a plot.
Sequence of (GST-GATE16)2, P60520 (P60520 whole entry): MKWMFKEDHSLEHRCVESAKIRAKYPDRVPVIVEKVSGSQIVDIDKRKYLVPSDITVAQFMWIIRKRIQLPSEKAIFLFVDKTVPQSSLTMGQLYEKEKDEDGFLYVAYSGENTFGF

B1: biotinylated AviTag-His6-NCOA4^383−522-MBP, Q13772 486F:A (protein)
chain: SMVTEDWLVQNHQDPCKVEEVCRANEPCTSFAECVCDENCEKEALYKWLLKKEGKDKNGMPVEPKPEPEKHKDSLNMWLCPRKEVIEQTKAPKAMTPSRIADSAQVIKNSPLSEWLIRPPYKEGSPKEVPGTEDRAGKQK
Consider B1, for which the response was found to be 0.026 nm.

B2: biotinylated AviTag-His6-NCOA4^383−522-MBP, Q13772 413F:A (protein)
chain: B1 chain with F31A, A104F
On to B2, for which the response is 0.056 nm.

These data come from PMC12872393, “NCOA4 initiates ferritinophagy by avidly binding GATE16 using two short linear interaction motifs” (Life Science Alliance, 2026).
